Results published in patent US20110269227A1 (SHARP, published 2011).
Ends that are not written are not given here. * marks the point of attachment. Biotin = O=C1N[C@H]2[C@H](CS[C@H]2CCCCC(=O)*)N1; PEG (amino-terminated) = not defined here; cellulose membrane = not defined here

T1: human adiponectin (R&D Systems) (human, UniProt Q15848 19-244)
T1 construct: Bought protein; also called ACRP30; GBP28
T1 sequence (looked up): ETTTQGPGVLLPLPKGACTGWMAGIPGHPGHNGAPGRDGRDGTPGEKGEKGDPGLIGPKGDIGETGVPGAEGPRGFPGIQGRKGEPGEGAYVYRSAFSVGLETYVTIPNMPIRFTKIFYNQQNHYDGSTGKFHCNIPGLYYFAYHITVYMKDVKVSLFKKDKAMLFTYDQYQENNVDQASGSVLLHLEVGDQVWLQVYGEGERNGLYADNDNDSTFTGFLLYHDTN


What was measured:
[1] = target: T1, human adiponectin (R&D Systems); assay: peptide spot on cellulose membrane, sandwich enzyme immunoassay with HRP-tagged anti-adiponectin antibody, fluorescence
Protocol: First, a cellulose membrane was soaked in ethanol. Then, the cellulose membrane was continuously washed with phosphate buffered saline (PBS) (pH 7.4) so that ethanol contained in the cellulose membrane was replaced with PBS. In order that nonspecific binding is inhibited, the cellulose membrane was incubated overnight in a blocking solution (PBS containing 1% milk powder).
Then, the cellulose membrane was incubated for 1 hour in a blocking solution (PBS containing 1% milk powder) which contains 0.25 μg/mL human adiponectin (R&D Systems). Then, the cellulose membrane was washed with PBST (PBS containing 0.1% (v/v) Tween 20). Then, the cellulose membrane was incubated for 1 hour in a blocking solution containing […] anti-human adiponectin antibody (R&D Systems) which is tagged with HRP, and then washed with PBST five times.
After that, 100 μM fluorescent substrate (Amplex Red (Invitrogen)) containing 1 mM hydrogen peroxide was added to the cellulose membrane, and then they react with each other for 10 minutes. A fluorescent intensity in a synthesis spot was measured in such a manner that an […] wavelength of 595 nm of fluorescence from the fluorescent substrate was measured by a fluorescence imager (GE Healthcare) by exciting, with light of 540 nm, the fluorescent substrate in the synthesis spot. A bond strength of the peptide was worked out from the fluorescent intensity in the synthesis spot.

[2] = target: T1, human adiponectin (R&D Systems); assay: adiponectin coated on microplate, 1 mM biotin-tagged peptide, HRP-streptavidin, TMB absorbance at 450 nm
Protocol: 5 μg/mL adiponectin (R&D Systems) prepared with PBS was dispensed to wells of a 96-well microplate in an amount of 100 μL per well. Then, the peptides were incubated for 1 hour at 37° C. Adiponectin was thus immobilized in the wells. In order to inhibit nonspecific binding, a blocking solution (Protein-Free Blocking Buffer, PIERCE) was then added to the wells in an amount of 300 μL per well. Then, the peptides were incubated for 2 hours at room temperature. Then, the wells were washed three times with PBST (PBS containing 0.1% (v/v) Tween 20). Then, 1 mM biotin-tagged peptide was added to the wells in an amount of 100 μL per well. Then, the peptides were incubated for 1 hour at room temperature. Then, the wells were washed with PBST again.
Then, HRP-tagged streptavidin (R&D Systems) diluted with 200 parts of the blocking solution (Protein-Free Blocking Buffer, PIERCE) was added to the well in an amount of 100 μL per well. Then, the streptavidin was incubated for 1 hour at room temperature. Then, the wells were washed with PBST. Then, TMB (tetramethylbenzidine) was added to the wells in an amount of 100 μL per well so that they react with each other for 20 minutes. Then, the reaction was stopped by adding 1 M of HCL to the wells in an amount of 100 μL per well. Then, an absorbance at 450 nm was measured by use of a microplate reader (Bio-Rad).

| Binder | binding result [1] | binding result [2] |
| --- | --- | --- |
| LLHGHRPPMP-{PEG (amino-terminated)-cellulose membrane} (reading uncertain, Spot-synthesised on a cellulose membrane) [peptide consisting of the amino-acid sequence represented by SEQ ID NO: 3] | binds |  |
| VRVLTLPL-{PEG (amino-terminated)-cellulose membrane} (reading uncertain, Spot-synthesised on a cellulose membrane) [peptide consisting of the amino-acid sequence represented by SEQ ID NO: 1] | binds |  |
| LTLPLQAHHAME-{PEG (amino-terminated)-cellulose membrane} (reading uncertain, Spot-synthesised on a cellulose membrane) [peptide consisting of the amino-acid sequence represented by SEQ ID NO: 2] | binds |  |
| IALLIMGS-{PEG (amino-terminated)-cellulose membrane} (reading uncertain, Spot-synthesised on a cellulose membrane) [peptide consisting of the amino-acid sequence represented by SEQ ID NO: 7] | binds |  |
| ITPIHWVK-{PEG (amino-terminated)-cellulose membrane} (reading uncertain, Spot-synthesised on a cellulose membrane) [peptide consisting of the amino-acid sequence represented by SEQ ID NO: 14] | binds |  |
| MHFTIAEG-{PEG (amino-terminated)-cellulose membrane} (reading uncertain, Spot-synthesised on a cellulose membrane) [peptide consisting of the amino-acid sequence represented by SEQ ID NO: 11] | binds |  |
| ILTMLRPNMYF-{PEG (amino-terminated)-cellulose membrane} (reading uncertain, Spot-synthesised on a cellulose membrane) [peptide consisting of the amino-acid sequence represented by SEQ ID NO: 5] | binds |  |
| GFVKATTV-{PEG (amino-terminated)-cellulose membrane} (reading uncertain, Spot-synthesised on a cellulose membrane) [peptide consisting of the amino-acid sequence represented by SEQ ID NO: 13] | binds |  |
| ITPIHWVKK(Biotin) |  | binds |
| RFATPKHR-{PEG (amino-terminated)-cellulose membrane} (reading uncertain, Spot-synthesised on a cellulose membrane) [peptide consisting of the amino-acid sequence represented by SEQ ID NO: 9] | binds |  |
| KFATPKHR [peptide having the amino-acid sequence represented by SEQ ID NO: 19] | binds |  |
| MGSFVPW-{PEG (amino-terminated)-cellulose membrane} (reading uncertain, Spot-synthesised on a cellulose membrane; also called MGSFVPW) [peptide consisting of the amino-acid sequence represented by SEQ ID NO: 8] | binds |  |
| MGSFVPY-{PEG (amino-terminated)-cellulose membrane} (reading uncertain, also called MGSFVPY) [peptide having the amino-acid sequence represented by SEQ ID NO: 18] | binds |  |
| RQTRAGVF-{PEG (amino-terminated)-cellulose membrane} (reading uncertain, Spot-synthesised on a cellulose membrane) [peptide consisting of the amino-acid sequence represented by SEQ ID NO: 10] | binds |  |
| APLQEKVVFG-{PEG (amino-terminated)-cellulose membrane} (reading uncertain, Spot-synthesised on a cellulose membrane) [peptide consisting of the amino-acid sequence represented by SEQ ID NO: 6] | binds |  |
| FLGLGLSGVVPT-{PEG (amino-terminated)-cellulose membrane} (reading uncertain, Spot-synthesised on a cellulose membrane) [peptide consisting of the amino-acid sequence represented by SEQ ID NO: 12] | binds |  |
| ILLPLRIN-{PEG (amino-terminated)-cellulose membrane} (reading uncertain, Spot-synthesised on a cellulose membrane; also called ILLPLRIN) [peptide consisting of the amino-acid sequence represented by SEQ ID NO: 15] | binds |  |
| ILLPLRINK(Biotin) |  | binds |
| FRIHTETG-{PEG (amino-terminated)-cellulose membrane} (reading uncertain, Spot-synthesised on a cellulose membrane) [peptide consisting of the amino-acid sequence represented by SEQ ID NO: 4] | binds |  |
